Results taken from publication PMC12861664 (2025).

Molecular target: coxsackievirus B5 Faulkner strain, purified virus (wild type) (coxsackievirus B5 (CV-B5/Faulkner))
Test: SPR

B1: decay accelerating factor (DAF) protein with tag (receptor)
chain: DCGLPPDVPNAQPALEGRTSFPEDTVITYKCEESFVKIPGEKDSVICLKGSQWSDIEEFCNRSCEVPTRLNSASLKQPYITQNYFPVGTVVEYECRPGYRREPSLSPKLTCLQNLKWSTAVEFCKKKSCPNPGEIRNGQIDVPGGILFGATISFSCNTGYKLFGSTSSFCLISGSSVQWSDPLPECREIYCPAPPQIDNGIIQGERDHYGYRQSVTYACNKGFTMIGEHSIYCTVNNDEGEWSGPPPECRGKSLTSKVPPTVQKPTTVNVPTTEVSPTSQKTTTKTTTPNAQATRSTPVSRTTKHFHETTPNKGSGTTS
Kd: 5.69 nM
